Measured values taken from publication PMC9763398.

How the values were obtained:
DYRK1A = DYRK1A (UniProt Q13627); test: immunofluorescence co-localisation, confocal overlap index
TGF-β receptor 1 = TGF-β receptor 1 (UniProt P36897); test: co-immunoprecipitation, western blot; settings: reference: wild type Hsp90ab1; sites S225,S254

other: average overlap index (DYRK1A; reference: wild type Hsp90ab1, sites S225,S254)	binding against the reference (TGF-β receptor 1)	other: average overlap index (DYRK1A; reference: wild type β-catenin, sites T551,S552)	Substance
weaker; reference 0.5378	weaker	–	Hsp90ab1 (from UniProt P08238) S225A S254A Hsp90ab1
–	–	weaker; reference 0.8419	β-catenin (from UniProt P35222) T551A S552A β-catenin
